This note sets out measurements from US20240272170A1 (QUANTUM SI, published 2024).

Test [1] addresses T1, QP1165 after cleavage to N-terminal leucine (LKQRVWK).
T1 peptide: LKQRVWK
The experiment in a line: on-chip dynamic sequencing of QP1165, PS1875 run, trace Aperture=1377116. The protocol: (§1) The semiconductor chip was placed in the sequencing device and a chip check was performed to test electronic circuit function and to optimize laser coupling alignment. The chip was then removed from the device socket and the chip was washed twice with 50 μL of 70% isopropanol, followed by four washes with 30 μL of wash buffer (50 mM MOPS pH 8.0, 60 mM potassium acetate, 50 mM glucose, 20 mM magnesium acetate, and surfactant mix) through a flow cell attached to the chip. A second chip check was then performed. The laser was then blocked via an integrated software-controlled shutter, peptide complex was added to a final concentration of 1-10 nM and mixed thoroughly, and the chip was incubated for 15 min. The chip was then washed six times with wash buffer, followed by addition of an imaging solution (wash buffer with 5 mM Trolox and an oxygen scavenging system). The laser was unblocked and the occupancy percentage (target 10-30%, Poisson distributed) was recorded by acquiring a photobleaching signal from a fluorophore attached to the peptide complex during 5 min of laser illumination. […] Data was recorded for 15 min. The laser was then blocked briefly and aminopeptidases were added to the sequencing reaction via the flow cell and mixed thoroughly (final concentration 2-8 μM PhTET2 and/or 20-80 μM PhTET3, as indicated according to the experiment). The laser was then unblocked, and data was recorded for 10 hours. For all runs, 30 μL of mineral oil was added to fluid reservoirs at each port of the flow cell to prevent evaporation during the run.

Test [2] concerns the target T2, QP1165 after cleavage to N-terminal isoleucine (IAFLKQRVWK).
T2 peptide: IAFLKQRVWK
The experiment in a line: on-chip dynamic sequencing of QP1165, 500 nM PS1875 plus five recognizers, 11565 alignments. The method, then:
as §1

Test [3] concerns the target T1, QP1165 after cleavage to N-terminal …. The description is as above. The protocol: as §1
Test [4] deals with T2, QP1165 after cleavage to N-terminal …. The experiment in a line: on-chip dynamic sequencing of QP1165, 500 nM PS1875 plus five recognizers, 7305 alignments.
Test [5] deals with T1, QP1165 after cleavage to N-terminal …. Described as above.
Test [6] has as its target T2, QP1165 after cleavage to N-terminal …. The experiment in a line: on-chip dynamic sequencing of QP1165, PS1875 run, trace Aperture=295010.
Test [7] addresses T1, QP1165 after cleavage to N-terminal …. The description is as above.
Test [8] deals with T2, QP1165 after cleavage to N-terminal …. The experiment in a line: on-chip dynamic sequencing of QP1165, PS1875 run, trace Aperture=1311609.

B1: PS1223 (designed binder)
single polypeptide, two PS961 units in tandem: MPTAASATESAIEDTPAPARPEVDGRTKPKRQPRYHVVLWDDDDHTYQYVVVMLRSLFGHPPSRGYRMAKEMDTQGRVIVLTTTREHAELKRDQIHAFGRDRLLARSKGSMKASIEAEEGSAGSAAGSGEFGSAGSAAGSGEFGSAGSAAGSGEFMPTAASATESAIEDTPAPARPEVDGRTKPKRQPRYHVVLWDDDDHTYQYVVVMLRSLFGHPPSRGYRMAKEMDTQGRVIVLTTTREHAELKRDQIHAFGRDRLLARSKGSMKASIEAEE
notes: dye-labelled recognizer for N-terminal L, I, V in the six-recognizer runs; also called PS1223 (LIV)
Regarding B1, the “PD of a recognition segment in an example trace” value in test [1] came to 0.68 s; in test [6], 0.48 s; in test [7], 3.19 s; in test [8], 0.61 s. In addition, the “IPD (interpulse duration)” value in test [2] is 8.79 s; in test [3], 17.1 s; in test [4] it was 8.02 s; in test [5], 15.4 s. Also, the “PD (pulse duration)” value in test [2] turned out to be 1.01 s; in test [3], 0.59 s; in test [4], 1.15 s; in test [5] it was 0.65 s.
